Assays:
SCLC xenografts = details: mouse, in vivo, sc; cited from earlier work
SCLC cells = details: cited from earlier work
[1] = molecular target: T1, Histidine-tagged DLL3 antigen (DLL3-His) (Homo sapiens, UniProt Q9NYJ7); experiment: Pairwise epitope binning on Carterra array SPR; details: pairwise competition for binding to DLL3-His, antibodies immobilized on HC200M chip
T1 construct: corresponding to amino acids Ala27-Ala479 with a C-terminal 6×His tag; made in house; host or cells: HEK293T cells
T1 sequence (Q9NYJ7 27-479): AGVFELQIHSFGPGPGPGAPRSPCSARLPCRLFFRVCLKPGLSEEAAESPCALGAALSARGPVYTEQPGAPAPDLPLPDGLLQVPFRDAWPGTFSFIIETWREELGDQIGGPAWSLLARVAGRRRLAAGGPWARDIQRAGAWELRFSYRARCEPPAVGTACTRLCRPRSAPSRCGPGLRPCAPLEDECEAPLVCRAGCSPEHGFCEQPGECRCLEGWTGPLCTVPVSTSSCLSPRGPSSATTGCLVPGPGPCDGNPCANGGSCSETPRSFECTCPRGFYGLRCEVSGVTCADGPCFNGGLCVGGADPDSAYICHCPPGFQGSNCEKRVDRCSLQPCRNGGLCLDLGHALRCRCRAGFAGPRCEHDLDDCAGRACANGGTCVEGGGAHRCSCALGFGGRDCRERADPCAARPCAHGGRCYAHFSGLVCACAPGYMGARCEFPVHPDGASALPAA
Protocol: The panel of purified anti-DLL3 monoclonal antibodies and the reference monoclonal antibody were subjected to pairwise epitope binning on a Carterra® array surface plasmon resonance (SPR) assay platform (Carterra*Inc., Salt Lake City UT) where each monoclonal antibody was tested for the capture of Histidine-tagged DLL3 antigen (DLL3-His), and also for competing with every other antibody in the panel for the binding to DLL3-His. The antibodies were immobilized on a HC200M chip (ligand) through standard amine coupling techniques by the print array method. Then in each cycle antigen was injected across the entire array followed by a single antibody (analyte). At the end of each cycle the surface was regenerated to remove antigen and analyte before a new cycle started.

hDLL1 = molecular target: T2, hDLL1 (Homo sapiens, UniProt O00548); experiment: ELISA specificity, hDLL1; format: binding
T2 sequence (O00548 18-723): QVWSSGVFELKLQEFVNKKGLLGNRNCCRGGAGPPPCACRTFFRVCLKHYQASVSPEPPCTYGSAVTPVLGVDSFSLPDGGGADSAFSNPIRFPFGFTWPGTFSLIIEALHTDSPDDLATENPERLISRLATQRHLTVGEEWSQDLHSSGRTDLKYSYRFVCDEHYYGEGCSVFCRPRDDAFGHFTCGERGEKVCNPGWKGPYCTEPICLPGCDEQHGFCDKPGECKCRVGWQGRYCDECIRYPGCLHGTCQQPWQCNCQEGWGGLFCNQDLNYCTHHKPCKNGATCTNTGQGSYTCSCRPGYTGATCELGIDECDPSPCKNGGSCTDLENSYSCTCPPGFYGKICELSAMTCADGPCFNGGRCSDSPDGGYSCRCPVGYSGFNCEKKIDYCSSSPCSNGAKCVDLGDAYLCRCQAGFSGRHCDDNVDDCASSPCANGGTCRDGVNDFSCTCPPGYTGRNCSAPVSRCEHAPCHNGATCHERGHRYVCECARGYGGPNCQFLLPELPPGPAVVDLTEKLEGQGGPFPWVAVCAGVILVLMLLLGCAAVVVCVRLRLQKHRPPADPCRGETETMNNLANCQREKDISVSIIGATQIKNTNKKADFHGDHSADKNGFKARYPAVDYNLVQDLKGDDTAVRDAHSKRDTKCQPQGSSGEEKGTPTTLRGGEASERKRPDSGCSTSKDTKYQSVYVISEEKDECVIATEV
Protocol: Next, affinity, binding domain, and specificity of antibodies including scFv designated as J8, B2, and L22 were analyzed. Affinity, binding domain and specificity of novel human anti-DLL3 antibodies are depicted in Table 30 below.

B1: [^89Zr]Zr-DFO-SC16 (conjugate, chains of the INN, looked up)
VH: QVQLVQSGAEVKKPGASVKVSCKASGYTFTNYGMNWVRQAPGQGLEWMGWINTYTGEPTYADDFKGRVTMTTDTSTSTAYMELRSLRSDDTAVYYCARIGDSSPSDYWGQGTLVTVSS
VL: EIVMTQSPATLSVSPGERATLSCKASQSVSNDVVWYQQKPGQAPRLLIYYASNRYTGIPARFSGSGSGTEFTLTISSLQSEDFAVYYCQQDYTSPWTFGQGTKLEIK
modifications: DFO chelator, 89Zr label
SCLC xenografts
  time post-injection at which optimal imaging was achieved: ≥ 120

B2: SC16: DLL3-targeting SC16 antibody component of Rova-T (antibody, chains of the INN, looked up, V domains shown)
VH: QVQLVQSGAEVKKPGASVKVSCKASGYTFTNYGMNWVRQAPGQGLEWMGWINTYTGEPTYADDFKGRVTMTTDTSTSTAYMELRSLRSDDTAVYYCARIGDSSPSDYWGQGTLVTVSS
VL: EIVMTQSPATLSVSPGERATLSCKASQSVSNDVVWYQQKPGQAPRLLIYYASNRYTGIPARFSGSGSGTEFTLTISSLQSEDFAVYYCQQDYTSPWTFGQGTKLEIK
SCLC cells
  internalization by SCLC cells upon binding to DLL3: rapidly internalized

B3: E23: anti-DLL3 antibody, VH SEQ ID NO: 119, VL SEQ ID NO: 120 (antibody, V domains shown)
VH: QVQLVQSGAEVRKPGASVKVSCKASGYTFTGYYMHWVRQAPGQGLEWMGWINSYSGGANYAQKFQDRVTMTRDTSVSTASMELSRLRSDDTAVYYCARDGSGWYGSYFDFWGQGTLVTVSS
VL: DIVMTQTPLSSPVTLGQPASISCRSSQSLVHSDGNTYLSWLQQRPGQPPRLLIYKISNRFSGVPDRFSGSGAGTDFTLKISRVEAEDVGFYYCIQTTQFPLTFGGGTKVEIK
[1]
  Epitope Bin: 7

B4: G16: anti-DLL3 antibody, VH SEQ ID NO: 157, VL SEQ ID NO: 158 (antibody, V domains shown)
VH: QVQLVQSGAEVKKPGASVQVSCKASGYTFTSYYMHWVRQAPGQGLEWMGIINPSGGSTSYAQKFQGRVTMTRDTSTSTVYMELSSLRSEDTAVYYCARQGGAQWLVLAFDIWGQGTMVTVSS
VL: EIVLTQSPGTLSLSPGERATLSCRASQSVSSYLAWYQQKPGQAPRLLIYGASSRATGIPDRFSGGGSGTDFTLTISRLEPEDFAVYYCQQYGSSPYTFGQGTKLEIK
[1]
  Epitope Bin: 4

B5: F9: anti-DLL3 antibody, VH SEQ ID NO: 126, VL SEQ ID NO: 127 (antibody, V domains shown)
VH: QVQLVQSGAEVKKPGASVQVSCKASGYTFTSYYMHWVRQAPGQGLEWMGIINPSGGSTSYAQKFQGRVTMTRDTSTSTVYMELSSLRSEDTAVYYCARQGGAQWLVLAFDIWGQGTMVTVSS
VL: EIVLTQSPGTLSLSPGERATLSCRASQSVSSYLAWYQQKPGQPPRLLIYGASSRATGIPDRFSGGGSGTDFTLTISRLEPEDFAVYYCQQYDSSPYTFGQGTKLEIK
[1]
  Epitope Bin: 4

B6: A18: anti-DLL3 antibody, VH SEQ ID NO: 34, VL SEQ ID NO: 35 (antibody, V domains shown)
VH: QVTLRESGPALVKSTQTLTLTCTFSGFSLSTSGMCVSWIRQTPGKALEWLALIDWDDNKYYSTSLKTRLIISKDTSKNQVVLTMTNMEPVDTATYYCARIRGYSGSYDAFDIWGQGTMVTVSS
VL: DIVMTQSPLSLPVTPGEPASISCRSSQSLLHSNGYNYLDWYLQKPGQSPHILLYLGSNRAPGVPDRFSGSGSGTDFTLKISRVEAEDVGVYYCMQALQTPFTFGPGTKVDIK
[1]
  Epitope Bin: 6

B7: L22: anti-DLL3 antibody, VH SEQ ID NO: 17, VL SEQ ID NO: 18 (antibody, V domains shown)
VH: EVQLLESGGGLVQPGGSLRLSCAASGFTFSSYAMGWVRQTPGKGLEWVSTISGRGGDTYYADSVKGRFTISRDNSKNTLYLQMNSLRAEDTAIYYCAKERGLGFDYWGQGTLVTVSS
VL: DIVMTQTPLSLPVTPGEPASISCRSSQSLLDSDDGNTYLDWYLQKPGQSPQLLIYTLSYRASGVPDRFSGSGSGTDFTLKISRVEAEDVGVYYCMQHLEFPLTFGGGTKVEIK
hDLL1
  ELISA hDLL1: 0.105
[1]
  Epitope Bin: 8

B8: B22: anti-DLL3 antibody, VH SEQ ID NO: 141, VL SEQ ID NO: 142 (antibody, V domains shown)
VH: EVQLVESGGGLVQPGGSLRLSCAASGFTFNNFWMSWVRQAPGKGLEWVANIKQDGSEKYYVDSVKGRFTISRDNAKNSLYLQMNSLRAEDTAVYYCARESYFDLWGRGTLVTVSS
VL: QAVVTQESALTTSPGETVTLTCRSSTGAVTTSNYANWVQEKPDHLFTGLIGGTNNRAPGVPARFSGSLIGDKAALTITGAQTEDEAIYFCALWYSNRWVFGGGTKLTVL
[1]
  Epitope Bin: 2

B9: B16-v2: anti-DLL3 antibody, VH SEQ ID NO: 108, VL SEQ ID NO: 113 (antibody, V domains shown)
VH: QVQLVQSGAEVKKPGASVKVSCKASGYTFTSYYMHWVRQAPGQGLEWMGIIDPSGGSTSYAQKFQGRVTMTRDTSTNTVYMDLSSLRSEDTAVYYCARQGRYVGSYLDYWGQGTLVTVSS
VL: DIQMTQSPSSLSASVGDRVTITCRASQGISNYLAWFQQKPGKAPKSVIYAASSLQSGVPSKFSGSGSGTDFTLTISSMQPEDFATYYCQQYNSYPYTFGQGTKLEIK
[1]
  Epitope Bin: 4

B10: O24: anti-DLL3 antibody, VH SEQ ID NO: 66, VL SEQ ID NO: 67 (antibody, V domains shown)
VH: QVQLVQSGAEVKKPGASVKVSCKASGYTFTSYYLHWVRQAPGHGLEWMAIINPSGGSTSYAQKFLGRVTMTRDTSTNTVYMELSSLRSEDTAVYYCARERQQLDYYYFAMDVWGQGTTVTVSS
VL: DIQMTQSPSSLSASVGDRVTITCRASQGISNYLAWFQQKPGKAPKSLIYAASSLQSGVPSKFSGSGSGTDFTLTISSLQPEDFATYYCQQYNSYPPTFGQGTKVEIK
[1]
  Epitope Bin: 4

B11: E9: anti-DLL3 antibody, VH SEQ ID NO: 42, VL SEQ ID NO: 43 (antibody, V domains shown)
VH: QVQLVQSGAEVKKPGASVKVSCKASGYTFTSYYMHWVRQAPGQGLEWMGVINSSGGSTSYAQKFQGRVTMTRDTSTSTVYMDLSSLRSEDTAVYYCARGYCTNGVYYDEDFDYWGQGTLVTVSS
VL: DIQMTQSPSSLSASVGDRVTITCRASQGISHYLAWFQQKPGKAPTSLIYAASSLQSGVPSKFSGSGSGTDFTLTISSLQPEDFATYYCQQYNSYPLTFGGGTKVEIK
[1]
  Epitope Bin: 4

B12: J8: anti-DLL3 antibody, VH SEQ ID NO: 7, VL SEQ ID NO: 8 (antibody, V domains shown)
VH: QVHLVQSGAEVKKPGASVKVSCKASGYTFTIYYIHWVRQAPGQGLEWMGIINPSGGSTSYAQKFQGRVTMTRDTSTSTVYMELSSLRSEDTAVYYCSGNDYVDYVTTDYYGMDVWGQGTTVTVSS
VL: DIQMTQSPSSLSASVGDRVTITCRASQGISNYLAWFQQKPGKAPKSLIYAASSLQSGVPSKFSGSGSGTDFTLTISSLQPEDFATYYCQQYNSSPYTFGQGTKLEIK
hDLL1
  ELISA hDLL1: 0.095
[1]
  Epitope Bin: 4

— patent US20240216557A1, “RADIOLIGAND BINDING TO ANTI-DLL3 ANTIBODIES FOR PRETARGETED PET IMAGING AND THERAPEUTIC USES THEREOF” (Memorial Sloan-Kettering Cancer Center, priority 2021, published 2024)
